{"source": "patent US10407662B2", "about": "“Method of culturing pluripotent stem cell, and polypeptide to be used therefor” (FUJIFILM Corporation, priority 2012, dated 2019)", "type_in_all_cases": "cell-based", "key": {"human iPS cells [1]": {"system": "human iPS cells", "assay": "Cell Adhesiveness Evaluation 2 (synthetic peptide inhibition of cell adhesion to natural vitronectin)", "settings": "100 μM synthetic peptide", "method": "Polypeptides listed in Table 7 were synthesized by Emoc solid phase synthesis. A surface to which natural vitronectin was adsorbed at a concentration of 130 pmol/m^2, and thereafter, a cell suspension to which 100 μM of the above-described synthetic peptide was added was seeded at a rate of 30,000 cells/well. The number of adherent cells after 24 h post seeding was calculated by the same technique as in <Cell Adhesiveness Evaluation 1>."}, "human iPS cells [2]": {"system": "human iPS cells", "assay": "Proliferation Evaluation of iPS cells on polypeptide-coated plate", "settings": "for The Number (%) of Cells after 3 Days: 5000 cells/well", "method": "The iPS cells collected in the same manner as in <Cell Adhesiveness Evaluation 1>described above were seeded on a 96-well plate, to which RCP-1, RCP-11, and the natural human vitronectin were adsorbed, at a rate of 250 cells/well, and were cultured in a 5% CO2 incubator at 37° C. for 8 days. The number of adherent cells after each lapse of time was measured by the same method as in <Cell Adhesiveness Evaluation 1> described above, to obtain proliferation curves, The proliferation curves were indicated in FIG. 2. In FIG. 2, a black rhombus represents an example in which RCP-1 was used, while a black tetragon represents an example in which RCP-11 was used.\nSimilarly, each of samples from […] was prepared so as to have an addition concentration listed in Table 8 with each of from RCP-1 to RCP-10, and RCP-17, and Human Recombinant Laminin-511 as a reference, was seeded on a 96-well plate, to which each polypeptide was adsorbed, at a rate of 5000 cells/well in the same manner as in<Cell Adhesiveness Evaluation 1> described above, and was cultured in a CO2 incubator at 37° C. for 3 days. The number of cells after the 3 days was measured by the same method as in <Cell Adhesiveness Evaluation 1> described above."}, "human iPS cells [3]": {"system": "human iPS cells", "assay": "Evaluation of Maintenance of Undifferentiation (colony form, NANOG staining)", "settings": "for form of iPS cell colonies: FIG. 3, TESR2, subculture every six days; for NANOG expression (immunostaining): FIG. 4; for NANOG expression (immunostaining) / maintenance of undifferentiated state: cultured for 1 month", "method": "iPS cells collected in the same manner as in <Cell Adhesiveness Evaluation 1> described above were suspended in TESR2. Induced pluripotent stem cells (iPS cells) were seeded on a 6-well plate (Tissue Culture-Treated, Falcon) to which each of the sample 1, the sample 2, the sample 5, the sample 6, and the sample 7 used in <Cell Adhesiveness Evaluation 1> described above was adsorbed in the same manner as in <Cell Adhesiveness Evaluation 1>, and were cultured in a CO2 incubator at 37° C. The culture medium was replaced by a fresh culture medium every day except the next day after the seeding. Subculture was performed by the same method as mentioned above every six days.\nThe cells were cultured under these conditions for 1 month, thereafter immobilized with 4% paraformaldehyde, and made to have membrane permeability enhanced with 1% Triton-X/PBS. Blocking treatment was performed with an Image IT Signal Enhancer (Invitrogen), followed by adding an anti-human NANOG antibody (AF1997, R&D Systems, Inc), ALEXA FLUOR 555-CONJUGATE rabbit anti-goat IgG antibody (Invitrogen), and DAPI (Dojindo Laboratories), by performing labeling, and by photographing the cells with a fluorescence microscope.\nIn each of FIG. 3 and FIG. 4, “A”, “B”, “C” “D”, and “E” show iPS cells cultured on RCP-1, iPS cells cultured on RCP-11, iPS cells cultured on the natural human vitronectin, iPS cells cultured on rinaminin-5, and iPS cells cultured on rLaminin-511, respectively. Scale bar: 100 μm. In FIG. 3, overall colony images are shown in the left column, while magnified images are shown in the right column; and in FIG. 4, DAPI-stained images are shown in the left column while anti-NANOG antibody-stained images are shown in the right column. Scale bars in FIGS. 3 and 4: 200 μm."}}}
{"molecule": "CCTDYTAECKPQVTRGDVFT [Peptide-5]", "values": [{"measurement": "inhibition of cell adhesion to natural vitronectin (in words)", "setting": "human iPS cells [1]", "value": "significantly inhibited"}]}
{"molecule": "CCTDYTAECKPQVTRGEVFT [Peptide-7]", "values": [{"measurement": "inhibition of cell adhesion to natural vitronectin (in words)", "setting": "human iPS cells [1]", "value": "adhesion inhibition did not occur"}]}
{"molecule": "DKKCQCDELCSYYQSCCTDY [Peptide-4]", "values": [{"measurement": "inhibition of cell adhesion to natural vitronectin (in words)", "setting": "human iPS cells [1]", "value": "significantly inhibited"}]}
{"molecule": "DQESCKGRCTEGFNVDKKCQ [Peptide-1]", "values": [{"measurement": "inhibition of cell adhesion to natural vitronectin (in words)", "setting": "human iPS cells [1]", "value": "adhesion inhibition did not occur"}]}
{"molecule": "EGFNVDKKCQCDELCSYYQS [Peptide-3]", "values": [{"measurement": "inhibition of cell adhesion to natural vitronectin (in words)", "setting": "human iPS cells [1]", "value": "adhesion inhibition did not occur"}]}
{"molecule": "KGRCTEGFNVDKKCQCDELC [Peptide-2]", "values": [{"measurement": "inhibition of cell adhesion to natural vitronectin (in words)", "setting": "human iPS cells [1]", "value": "adhesion inhibition did not occur"}]}
{"molecule": "Laminin-511: recombinant laminin (Human Recombinant Laminin-511: Biolamina)", "values": [{"measurement": "The Number (%) of Cells after 3 Days", "setting": "human iPS cells [2]; addition amount 1.28 μg/cm^2", "value": 56.8, "unit": "%"}]}
{"molecule": "RCP-6: recombinant polypeptide, Met + human vitronectin positions 1-55, 269-459, C274S (protein, Synthetic Peptide RCP-6, recombinant polypeptide, Met + human vitronectin positions 1-55, 269-459, C274S) MDQESCKGRCTEGFNVDKKCQCDELCSYYQSCCTDYTAECKPQVTRGDVFTMPEDESQEESEGSSLSAVFEHFAMMQRDSWEDIFELLFWGRTSAGTRQPQFISRDWHGVPGQVDAAMAGRIYISGMAPRPSLAKKQRFRHRNRKGYRSQRGHSRGRNQNSRRPSRATWLSLFSSEESNLGANNYDDYRMDWLVPATSEPIQSVFFFSGDKYYRVNLRTRRVDTVDPPYPRSIAQYWLGSPAPGHL", "values": [{"measurement": "The Number (%) of Cells after 3 Days", "setting": "human iPS cells [2]; addition amount 20 μg/cm^2", "value": 70.5, "unit": "%"}]}
{"molecule": "Natural vitronectin: human vitronectin (extracted from human plasma, BD Biosciences) (protein, listed as Homo sapiens, glycosylated, plasma-derived) DQESCKGRCTEGFNVDKKCQCDELCSYYQSCCTDYTAECKPQVTRGDVFTMPEDEYTVYDDGEEKNNATVHEQVGGPSLTSDLQAQSKGNPEQTPVLKPEEEAPAPEVGASKPEGIDSRPETLHPGRPQPPAEEELCSGKPFDAFTDLKNGSLFAFRGQYCYELDEKAVRPGYPKLIRDVWGIEGPIDAAFTRINCQGKTYLFKGSQYWRFEDGVLDPDYPRNISDGFDGIPDNVDAALALPAHSYSGRERVYFFKGKQYWEYQFQHQPSQEECEGSSLSAVFEHFAMMQRDSWEDIFELLFWGRTSAGTRQPQFISRDWHGVPGQVDAAMAGRIYISGMAPRPSLAKKQRFRHRNRKGYRSQRGHSRGRNQNSRRPSRATWLSLFSSEESNLGANNYDDYRMDWLVPATCEPIQSVFFFSGDKYYRVNLRTRRVDTVDPPYPRSIAQYWLGCPAPGHL", "values": [{"measurement": "form of iPS cell colonies", "setting": "human iPS cells [3]", "value": "homogeneous colony and a form characteristic for undifferentiated cells having a high nucleus occupying rate"}, {"measurement": "NANOG expression (immunostaining)", "setting": "human iPS cells [3]", "value": "strongly expressed NANOG in an overall colony"}, {"measurement": "maintenance of undifferentiated state", "setting": "human iPS cells [3]", "value": "undifferentiated state was favorably maintained"}]}
{"molecule": "RCP-8: recombinant polypeptide, Met + human vitronectin positions 1-55, 269-373, 374-379, C274S (protein, Synthetic Peptide RCP-8, recombinant polypeptide, Met + human vitronectin positions 1-55, 269-373, 374-379, C274S) MDQESCKGRCTEGFNVDKKCQCDELCSYYQSCCTDYTAECKPQVTRGDVFTMPEDESQEESEGSSLSAVFEHFAMMQRDSWEDIFELLFWGRTSAGTRQPQFISRDWHGVPGQVDAAMAGRIYISGMAPRPSLAKKQRFRHRNRKGYRSQRGHSRGRNQNSRRPSR", "values": [{"measurement": "The Number (%) of Cells after 3 Days", "setting": "human iPS cells [2]; addition amount 5 μg/cm^2", "value": 171.0, "unit": "%"}]}
{"molecule": "RCP-5: recombinant polypeptide, Met + human vitronectin positions 1-55, 302-341, 342-373 (protein, Synthetic Peptide RCP-5) MDQESCKGRCTEGFNVDKKCQCDELCSYYQSCCTDYTAECKPQVTRGDVFTMPEDEFWGRTSAGTRQPQFISRDWHGVPGQVDAAMAGRIYISGMAPRPSLAKKQRFRHRNRKGYRSQRGHSRGRNQN", "values": [{"measurement": "The Number (%) of Cells after 3 Days", "setting": "human iPS cells [2]; addition amount 10 μg/cm^2", "value": 121.2, "unit": "%"}]}
{"molecule": "RCP-17: recombinant polypeptide, Met + SEQ ID NO:38; vitronectin positions 1-55, 269-277, 295-341, 342-373, C274S (printed as RCP-11 in Table 2) (protein, Synthetic Peptide RCP-17) MDQESCKGRCTEGFNVDKKCQCDELCSYYQSCCTDYTAECKPQVTRGDVFTMPEDESQEESEGSEDIFELLFWGRTSAGTRQPQFISRDWHGVPGQVDAAMAGRIYISGMAPRPSLAKKQRFRHRNRKGYRSQRGHSRGRNQN", "values": [{"measurement": "The Number (%) of Cells after 3 Days", "setting": "human iPS cells [2]; addition amount 5 μg/cm^2", "value": 153.5, "unit": "%"}]}
{"molecule": "RCP-7: recombinant polypeptide, Met + human vitronectin positions 1-55, 269-373, C274S (protein, Synthetic Peptide RCP-7, recombinant polypeptide, Met + human vitronectin positions 1-55, 269-373, C274S) MDQESCKGRCTEGFNVDKKCQCDELCSYYQSCCTDYTAECKPQVTRGDVFTMPEDESQEESEGSSLSAVFEHFAMMQRDSWEDIFELLFWGRTSAGTRQPQFISRDWHGVPGQVDAAMAGRIYISGMAPRPSLAKKQRFRHRNRKGYRSQRGHSRGRNQN", "values": [{"measurement": "The Number (%) of Cells after 3 Days", "setting": "human iPS cells [2]; addition amount 5 μg/cm^2", "value": 89.9, "unit": "%"}]}
{"molecule": "RCP-2: recombinant polypeptide, Met + human vitronectin positions 1-55, 342-373 (protein, Synthetic Peptide RCP-2) MDQESCKGRCTEGFNVDKKCQCDELCSYYQSCCTDYTAECKPQVTRGDVFTMPEDEPRPSLAKKQRFRHRNRKGYRSQRGHSRGRNQN", "values": [{"measurement": "The Number (%) of Cells after 3 Days", "setting": "human iPS cells [2]; addition amount 20 μg/cm^2", "value": 81.7, "unit": "%"}]}
{"molecule": "RCP-3: recombinant polypeptide, Met + human vitronectin positions 1-55, 322-341, 342-373 (protein, Synthetic Peptide RCP-3) MDQESCKGRCTEGFNVDKKCQCDELCSYYQSCCTDYTAECKPQVTRGDVFTMPEDEGVPGQVDAAMAGRIYISGMAPRPSLAKKQRFRHRNRKGYRSQRGHSRGRNQN", "values": [{"measurement": "The Number (%) of Cells after 3 Days", "setting": "human iPS cells [2]; addition amount 20 μg/cm^2", "value": 109.7, "unit": "%"}]}
{"molecule": "RCP-11: comparative recombinant polypeptide, GPLG + positions 1-459; corresponds to the sequence of natural human vitronectin (protein, Synthetic Peptide CRP-11) GPLGDQESCKGRCTEGFNVDKKCQCDELCSYYQSCCTDYTAECKPQVTRGDVFTMPEDEYTVYDDGEEKNNATVHEQVGGPSLTSDLQAQSKGNPEQTPVLKPEEEAPAPEVGASKPEGIDSRPETLHPGRPQPPAEEELCSGKPFDAFTDLKNGSLFAFRGQYCYELDEKAVRPGYPKLIRDVWGIEGPIDAAFTRINCQGKTYLFKGSQYWRFEDGVLDPDYPRNISDGFDGIPDNVDAALALPAHSYSGRERVYFFKGKQYWEYQFQHQPSQEECEGSSLSAVFEHFAMMQRDSWEDIFELLFWGRTSAGTRQPQFISRDWHGVPGQVDAAMAGRIYISGMAPRPSLAKKQRFRHRNRKGYRSQRGHSRGRNQNSRRPSRATWLSLFSSEESNLGANNYDDYRMDWLVPATCEPIQSVFFFSGDKYYRVNLRTRRVDTVDPPYPRSIAQYWLGCPAPGHL", "values": [{"measurement": "form of iPS cell colonies", "setting": "human iPS cells [3]", "value": "homogeneous colony and a form characteristic for undifferentiated cells having a high nucleus occupying rate"}, {"measurement": "NANOG expression (immunostaining)", "setting": "human iPS cells [3]", "value": "strongly expressed NANOG in an overall colony"}, {"measurement": "maintenance of undifferentiated state", "setting": "human iPS cells [3]", "value": "undifferentiated state was favorably maintained"}, {"measurement": "number of cells smaller than that of RCP-1, as fraction of RCP-1", "setting": "human iPS cells [2]; culture day 8, FIG. 2", "value": "around ⅓"}]}
{"molecule": "RCP-4: recombinant polypeptide, Met + human vitronectin positions 1-55, 312-341, 342-373 (protein, Synthetic Peptide RCP-4) MDQESCKGRCTEGFNVDKKCQCDELCSYYQSCCTDYTAECKPQVTRGDVFTMPEDEQPQFISRDWHGVPGQVDAAMAGRIYISGMAPRPSLAKKQRFRHRNRKGYRSQRGHSRGRNQN", "values": [{"measurement": "The Number (%) of Cells after 3 Days", "setting": "human iPS cells [2]; addition amount 20 μg/cm^2", "value": 120.7, "unit": "%"}]}
